First the molecules themselves.
T1: soluble guanylyl cyclase (sGC) α subunit, of the purified reduced sGC (human, UniProt Q02108 1-690)
T1 construct: soluble guanylyl cyclase α subunit, human GCYA3; called full-length reduced sGC in the discussion; cross-linked lysines K5, K606, K672, K673, K685; Bought as the α/β heterodimer and reduced before incubation with PDI; also called GCYA3; source: bought: Axxora
T1 sequence (looked up): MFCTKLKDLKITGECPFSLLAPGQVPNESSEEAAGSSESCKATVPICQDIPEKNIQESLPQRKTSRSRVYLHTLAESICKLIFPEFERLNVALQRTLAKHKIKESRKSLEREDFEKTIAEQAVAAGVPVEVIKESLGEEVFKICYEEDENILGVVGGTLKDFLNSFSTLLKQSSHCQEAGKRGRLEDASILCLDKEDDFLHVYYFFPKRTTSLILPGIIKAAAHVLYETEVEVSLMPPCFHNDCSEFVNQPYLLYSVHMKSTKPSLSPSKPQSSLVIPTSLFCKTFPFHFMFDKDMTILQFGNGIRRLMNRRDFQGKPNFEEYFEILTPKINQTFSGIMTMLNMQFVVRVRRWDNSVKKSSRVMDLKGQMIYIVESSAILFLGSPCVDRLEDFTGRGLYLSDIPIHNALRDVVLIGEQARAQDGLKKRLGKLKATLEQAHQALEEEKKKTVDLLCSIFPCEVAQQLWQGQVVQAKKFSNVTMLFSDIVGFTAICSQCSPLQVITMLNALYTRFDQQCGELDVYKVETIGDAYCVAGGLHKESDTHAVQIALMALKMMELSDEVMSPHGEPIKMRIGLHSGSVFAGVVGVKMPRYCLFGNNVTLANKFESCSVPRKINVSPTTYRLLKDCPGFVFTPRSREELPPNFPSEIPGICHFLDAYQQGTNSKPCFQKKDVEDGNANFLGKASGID

B1: protein disulfide isomerase (PDI), oxidized, purified (enzyme)
chain: not shown
modifications: oxidized: each active site Cys-x-x-Cys forms a disulfide bond
notes: protein disulfide isomerase, human P4HB; called full-length oxidized PDI in the discussion; cross-linked lysines K370 and K409; also called oxidized PDI; oxPDI; source: PDI in pTRC-HisA, purified as described previously [11]
B2: soluble guanylyl cyclase (sGC) β subunit, of the purified reduced sGC (enzyme, human, UniProt Q02153 1-619, looked up)
chain: MYGFVNHALELLVIRNYGPEVWEDIKKEAQLDEEGQFLVRIIYDDSKTYDLVAAASKVLNLNAGEILQMFGKMFFVFCQESGYDTILRVLGSNVREFLQNLDALHDHLATIYPGMRAPSFRCTDAEKGKGLILHYYSEREGLQDIVIGIIKTVAQQIHGTEIDMKVIQQRNEECDHTQFLIEEKESKEEDFYEDLDRFEENGTQESRISPYTFCKAFPFHIIFDRDLVVTQCGNAIYRVLPQLQPGNCSLLSVFSLVRPHIDISFHGILSHINTVFVLRSKEGLLDVEKLECEDELTGTEISCLRLKGQMIYLPEADSILFLCSPSVMNLDDLTRRGLYLSDIPLHDATRDLVLLGEQFREEYKLTQELEILTDRLQLTLRALEDEKKKTDTLLYSVLPPSVANELRHKRPVPAKRYDNVTILFSGIVGFNAFCSKHASGEGAMKIVNLLNDLYTRFDTLTDSRKNPFVYKVETVGDKYMTVSGLPEPCIHHARSICHLALDMMEIAGQVQVDGESVQITIGIHTGEVVTGVIGQRMPRYCLFGNTVNLTSRTETTGEKGKINVSEYTYRCLMSPENSDPQFHLEHRGPVSMKGKKEPMQVWFLSRKNTGTEETKQDDD
notes: soluble guanylyl cyclase β subunit, human GCYB1; called full-length reduced sGC in the discussion; cross-linked lysines K127, K187, K559, K615; Bought as the α/β heterodimer and reduced before incubation with PDI; also called GCYB1; source: bought: Axxora

Experiment [1] concerns the target T1, soluble guanylyl cyclase (sGC) α …. As to the kind of experiment: cross-linking; reduced sGC and oxidized PDI incubated, 50 molar excess of BS3 for 30 minutes at room temperature (22°C) in the dark, alkylated with 40 mM iodoacetamide, non-reducing 7.5% TGX gel, bands digested with trypsin, RPLC-MS/MS, MassMatrix search. As to conditions: both partners purified.

Experiment [2] concerns the target B2. The experiment is described as above. The conditions noted are these: both partners purified.

Here are results for two molecules from publication PMC4664405, “Mapping Soluble Guanylyl Cyclase and Protein Disulfide Isomerase Regions of Interaction” (PLoS ONE, 2015).

As to B1, the binding result in experiment [1] and in experiment [2] was “binds” each time.
For the molecule B2, in experiment [1], the binding result is on record as “binds”.
